The values that follow come from patent US10253323B2, “Chloroplast transit peptides” (priority 2015, dated 2019).

The test system of test [1] is soybean looper (SBL). Nature of the test: Insect bioassay of Cry2Aa Arabidopsis events, soybean looper. Type of test: in vivo. How it is done:
(§1) The effectiveness of the TraP11 chimeric chloroplast transit peptides on Cry2Aa protein expression in Arabidopsis thaliana was assessed. Transgenic Arabidopsis plants which contained TraP11 chimeric chloroplast transit peptides fused to the Cry2Aa protein were assayed for insect tolerance to soybean looper (SBL) and tobacco budworm (TBW).
(§2) A small aliquot of T2 seed (approx. 100-200 seeds) for each event were suspended in 40 mls of 0.1% agarose solution and cold stratified at 4° C. for 24 hrs. The stratified seeds were then sown by pipetting 10 ml of seed onto the surface of four flats in a propagation flat. The flats were filled with Sunshine #5 soil Media™ (Sun Gro; Bellevue, Wash.) and lightly covered with fine vermiculite. The trays were saturated in Hoagland's fertilizer prior to sowing and as needed afterward. After sowing, humidity domes were used to cover the trays and they were then placed into a Conviron™ growth chamber set at 24° C. with a 16 hr photo period. Incandescent and fluorescent lights provided a light level of 200 PAR. After 5 days the seeds germinated and the domes were removed. The first herbicide selection of transformants was on day 6 and the second on day 10. Liberty™ herbicide (a.i. glufosinate-ammonium) was applied using a DeVilbiss atomizer hand sprayer at a rate of 200 g ai/ha to remove nulls. Roughly 25% of the plants were nulls as expected. A row of wild type checks were also included in the selection and they had 100% mortality after two herbicide applications. At 14 days the plants were ready for transplanting. […] The flats were presoaked with Hoagland's fertilizer prior to transplant and afterward as needed. The transplants were propagated in a non-air conditioned green house set at 25° C. with 14 hours of supplemental light. Silique development was inhibited by trimming with scissors and thus created more plant tissue for testing. Plants were ready for DNA sampling at 16-18 days and ready for bio-assay at about 23 days. The putative transgenic plants were screened using molecular confirmation assays and identified events were advanced for protein analysis and bioassay results.
(§3) Both sets of T1 Arabidopsis events were tested in insect bioassay experiments. […] There was a correlation between protein expression and leaf protection against both SBL and TBW for Arabidopsis events expressing Cry2Aa without a TraP (r^2=0.49 [SBL], 0.23 [TBW]), and for Arabidopsis events expressing Cry2Aa with TraP11 (r^2=0.75 [SBL], 0.17 [TBW]). Resultantly, an increase in protein expression caused significant protection against leaf damage (Pr<0.05).

In test [2] the test system is tobacco budworm (TBW). Nature of the test: Insect bioassay of Cry2Aa Arabidopsis events, tobacco budworm. Type of test: in vivo. How it is done:
as §1, §2, §3

The subject of test [3] is infiltrated tobacco cells. As to the kind of experiment: Western blot of infiltrated tobacco plants. The test is classed as cell-based, Nicotiana tabacum. The note with it: infiltrated tobacco leaf tissue. How it is done:
Samples of the infiltrated tobacco plants were assayed via Western blotting. Leaf punches were collected and subjected to bead-milling. About 100-200 mg of leaf material was mixed with 2 BBs (Daisy; Rogers, Ark.) and […] of PBST for 3 minutes in a Kleco™ bead mill. The samples were then spun down in a centrifuge at 14,000× g at 4° C. The supernatant was removed and either analyzed directly via Western blot or immunoprecipitated. The immunoprecipitations were performed using the Pierce Direct IP Kit™ (Thermo Scientific; Rockford, Ill.) following the manufacturer's protocol. Approximately, 50 μg of anti-YFP or anti-GFP was bound to the resin. The samples were incubated with the resin overnight at 4° C. Next, the samples were washed and eluted the following morning and prepped for analysis by combining equal volumes of 2×8M Urea sample buffer and then boiling the samples for 5 minutes. The boiled samples were run on a 4-12% SDS-Bis Tris gel in MOPS buffer for 40 minutes. The gel was then blotted using the Invitrogen iBlot™ (Life Technologies; Carlsbad, Calif.) following the manufacturer's protocol. The blotted membrane was blocked for 10 minutes using 5% non-fat dry milk in PBS-Tween® solution. The membrane was probed with the primary antibody (monoclonal anti-GFP or anti-YFP in rabbit) used at a 1:1000 dilution in the 5% non-fat dry milk in PBS-Tween® solution for 1 hour. Next, the membrane was rinsed three times for five minutes with PBS-Tween® to remove all unbound primary antibody. The membrane was probed with a secondary monoclonal anti-rabbit in goat antibody (Life Technologies) used at a 1:1000 dilution, for 60 minutes. The membrane was washed as previously described and developed by adding Themo BCIP/NBT™ substrate. The colormetric substrate was allowed to develop for 5-10 minutes and then the blots were rinsed with water before being dried.
Background: Immunoblotting shows a protein as a band on a membrane.

In test [4] the test system is chloroplasts of the tobacco leaf tissues. As to the kind of experiment: Tobacco transient assay, confocal microscopy of TraP-YFP/GFP. The test is classed as cell-based, Nicotiana tabacum. The note with it: TraP-YFP or TraP-GFP fusion, Agrobacterium-infiltrated tobacco leaf tissue. The source says: The above described chimeric chloroplast transit peptide sequences were initially tested via a transient in planta assay. Polynucleotide sequences which encode the TraP10 (SEQ ID NO:9), TraP11 (SEQ ID NO:10), TraP17 (SEQ ID NO:11), TraP18 (SEQ ID NO:12), TraP19 (SEQ ID NO:13), TraP26 (SEQ ID NO:14), TraP27 (SEQ ID NO:15), and TraP28 (SEQ ID NO:16), chimeric chloroplast transit peptide sequences were synthesized. A linker sequence (SEQ ID NO:17) was incorporated between the TraP sequence and the yfp coding sequence of TraP10 and TraP11. The resulting constructs contained two plant transcription units (PTU). The first PTU was comprised of the Arabidopsis thaliana Ubiquitin 10 promoter (AtUbi10 promoter; Callis, et al., (1990) J. Biol. Chem., 265: 12486-12493), TraP-yellow fluorescent protein fusion gene (TraP-YFP; US Patent App. 2007/0298412) or the TraP-green fluorescent protein fusion gene (TraP-GFP; Sheen et al., (1995) Plant J., 8(5): 777-84), and Agrobacterium tumefaciens ORF 23 3′ untranslated region (AtuORF23 3′UTR; U.S. Pat. No. 5,428,147). The second PTU was comprised of the Cassava Vein Mosaic Virus promoter (CsVMV promoter; Verdaguer et al., (1996) Plant Molecular Biology, 31: 1129-1139), phosphinothricin acetyl transferase (PAT; Wohlleben et al., (1988) Gene, 70: 25-37) or DSM-II (International Patent App. 2008070845), and Agrobacterium tumefaciens ORF 1 3′ untranslated region (AtuORF1 3′UTR; Huang et al., (1990) J. Bacteriol., 172: 1814-1822). Construct pDAB101979 contains the TraP10 chimeric chloroplast transit peptide (FIG. 3). Construct pDAB101980 contains the TraP11 chimeric chloroplast transit peptide (FIG. 4). Construct pDAB107634 contains the TraP17 chimeric chloroplast transit peptide (FIG. 5). Construct pDAB107635 contains the TraP18 chimeric chloroplast transit peptide (FIG. 6). Construct pDAB107636 contains the TraP19 chimeric chloroplast transit peptide (FIG. 7). Construct pDAB109847 contains the TraP26 chimeric chloroplast transit peptide (FIG. 8). Construct pDAB109848 contains the TraP27 chimeric chloroplast transit peptide (FIG. 9). Construct pDAB109849 contains the TraP28 chimeric chloroplast transit peptide (FIG. 10). […] The constructs were confirmed via restriction enzyme digestion and sequencing. Finally, the constructs were transformed into Agrobacterium tumefaciens and stored as glycerol stocks.
From an Agrobacterium glycerol stock, a loop full of frozen culture was inoculated into 2 ml of Yeast-extract Peptone Dextrose (100 μg/ml spectinomycin) in a 14 ml sterile tube. The inoculated media was incubated at 28° C. overnight with shaking at 200 rpm. The following day about 100 μl of the culture was used to inoculate 25 ml of YPD (100 μg/ml spectinomycin) in a 125 ml sterile tri-baffled flask, and incubated overnight at 28° C. overnight with shaking at 200 rpm. The following day the cultures were diluted to an OD600 of 0.5 in sterile ddH2O (pH 8.0). The diluted Agrobacterium strain was mixed with a second Agrobacterium strain containing the P19 helper protein at a ratio of 1:1. The culture were used for tobacco leaf infiltration via the Voinnet method. Voinnet O, Rivas S, Mestre P, and Baulcombe D, (2003) An enhanced transient expression system in plants based on suppression of gene silencing by the p19 protein of tomato bushy stunt virus. The Plant Journal, 33: 949-956. Infiltrated tobacco plants were placed in a Conviron™ set at 16 hr of light at 24° C. for at least three days until being assayed.
Agrobacterium-infiltrated tobacco leaves were severed from the plant, and placed into a petri-dish with water to prevent dehydration. The infiltrated tobacco leaves were observed under blue light excitation with long-pass filter glasses held in place using a Dark Reader Hand Lamp™ (Clare Chemical Research Co.; Dolores, Colo.) to identify undamaged areas of the leaf that were successfully expressing the YFP or GFP reporter proteins. […]

“Also recorded” adds a separate entry of the source.

B1: Cry2Aa without a TraP: Cry2Aa protein expressed in Arabidopsis from control plasmid without a chloroplast transit peptide sequence upstream of the cry2Aa gene (protein, UniProt P0A377 1-633, looked up)
Pesticidal crystal protein …: MNNVLNSGRTTICDAYNVVAHDPFSFEHKSLDTIQKEWMEWKRTDHSLYVAPVVGTVSSFLLKKVGSLIGKRILSELWGIIFPSGSTNLMQDILRETEQFLNQRLNTDTLARVNAELIGLQANIREFNQQVDNFLNPTQNPVPLSITSSVNTMQQLFLNRLPQFQIQGYQLLLLPLFAQAANMHLSFIRDVILNADEWGISAATLRTYRDYLRNYTRDYSNYCINTYQTAFRGLNTRLHDMLEFRTYMFLNVFEYVSIWSLFKYQSLMVSSGANLYASGSGPQQTQSFTAQNWPFLYSLFQVNSNYILSGISGTRLSITFPNIGGLPGSTTTHSLNSARVNYSGGVSSGLIGATNLNHNFNCSTVLPPLSTPFVRSWLDSGTDREGVATSTNWQTESFQTTLSLRCGAFSARGNSNYFPDYFIRNISGVPLVIRNEDLTRPLHYNQIRNIESPSGTPGGARAYLVSVHNRKNNIYAANENGTMIHLAPEDYTGFTISPIHATQVNNQTRTFISEKFGNQGDSLRFEQSNTTARYTLRGNGNSYNLYLRVSSIGNSTIRVTINGRVYTVSNVNTTTNNDGVNDNGARFSDINIGNIVASDNTNVTLDINVTLNSGTPFDLMNIMFVPTNLPPLY
For B1, the “protection of Arabidopsis plants from SBL damage” value in test [1] is listed as “protected from SBL damage”. Besides, in test [1] (Arabidopsis events), the “minimum Cry2Aa protein expression for lower than 20% leaf damage” value was 2.0-2.5 ng/cm^2 and the “minimum Cry2Aa protein expression for lower than 30% leaf damage” value was “about 1.5 ng/cm^2”. For the same molecule, the “protection of Arabidopsis plants from TBW damage” value in test [2] was “protected from TBW damage”. For the same molecule, in test [2] (Arabidopsis events), the “Cry2Aa protein concentration resulting in less than 30% leaf damage” value is listed as about 1.5 ng/cm^2 and the “Cry2Aa protein level at the 20% leaf damage cut-off point” value is 2.0-2.5 ng/cm^2.

B2: TraP11: chimeric chloroplast transit peptide, SEQ ID NO:2; N-terminus Glycine max, C-terminus Brassica napus; tested fused to YFP (pDAB101980) (protein)
chain: MAQVSRVHNLAQSTQIFGHSSNSNKLKSVNSVSLKTHQPRASSWGLKKSGTMLNGSVIRPVKVTASVS
modifications: TraP11
Take B2: in test [1], the “protection of Arabidopsis plants from SBL damage” value is reported as “provided insect tolerance”. The “protection of Arabidopsis plants from TBW damage” value in test [2] is “provided insect tolerance”. Besides, the “TraP processed and cleaved from the YFP or GFP protein” value in test [3] was “processed and cleaved from the YFP or GFP protein”. For the same molecule, the “translocation of YFP or GFP fluorescent protein into chloroplasts” value in test [4] was “accumulated within the chloroplasts; also recorded: successfully targeted YFP to tobacco chloroplasts”; in test [4] (listed as TraP11-YFP) it was “translocated into the chloroplasts”.
